Molecular target: T1, ATAD2 (human, UniProt Q6PL18 1-1390, limits assumed)
T1 sequence (looked up): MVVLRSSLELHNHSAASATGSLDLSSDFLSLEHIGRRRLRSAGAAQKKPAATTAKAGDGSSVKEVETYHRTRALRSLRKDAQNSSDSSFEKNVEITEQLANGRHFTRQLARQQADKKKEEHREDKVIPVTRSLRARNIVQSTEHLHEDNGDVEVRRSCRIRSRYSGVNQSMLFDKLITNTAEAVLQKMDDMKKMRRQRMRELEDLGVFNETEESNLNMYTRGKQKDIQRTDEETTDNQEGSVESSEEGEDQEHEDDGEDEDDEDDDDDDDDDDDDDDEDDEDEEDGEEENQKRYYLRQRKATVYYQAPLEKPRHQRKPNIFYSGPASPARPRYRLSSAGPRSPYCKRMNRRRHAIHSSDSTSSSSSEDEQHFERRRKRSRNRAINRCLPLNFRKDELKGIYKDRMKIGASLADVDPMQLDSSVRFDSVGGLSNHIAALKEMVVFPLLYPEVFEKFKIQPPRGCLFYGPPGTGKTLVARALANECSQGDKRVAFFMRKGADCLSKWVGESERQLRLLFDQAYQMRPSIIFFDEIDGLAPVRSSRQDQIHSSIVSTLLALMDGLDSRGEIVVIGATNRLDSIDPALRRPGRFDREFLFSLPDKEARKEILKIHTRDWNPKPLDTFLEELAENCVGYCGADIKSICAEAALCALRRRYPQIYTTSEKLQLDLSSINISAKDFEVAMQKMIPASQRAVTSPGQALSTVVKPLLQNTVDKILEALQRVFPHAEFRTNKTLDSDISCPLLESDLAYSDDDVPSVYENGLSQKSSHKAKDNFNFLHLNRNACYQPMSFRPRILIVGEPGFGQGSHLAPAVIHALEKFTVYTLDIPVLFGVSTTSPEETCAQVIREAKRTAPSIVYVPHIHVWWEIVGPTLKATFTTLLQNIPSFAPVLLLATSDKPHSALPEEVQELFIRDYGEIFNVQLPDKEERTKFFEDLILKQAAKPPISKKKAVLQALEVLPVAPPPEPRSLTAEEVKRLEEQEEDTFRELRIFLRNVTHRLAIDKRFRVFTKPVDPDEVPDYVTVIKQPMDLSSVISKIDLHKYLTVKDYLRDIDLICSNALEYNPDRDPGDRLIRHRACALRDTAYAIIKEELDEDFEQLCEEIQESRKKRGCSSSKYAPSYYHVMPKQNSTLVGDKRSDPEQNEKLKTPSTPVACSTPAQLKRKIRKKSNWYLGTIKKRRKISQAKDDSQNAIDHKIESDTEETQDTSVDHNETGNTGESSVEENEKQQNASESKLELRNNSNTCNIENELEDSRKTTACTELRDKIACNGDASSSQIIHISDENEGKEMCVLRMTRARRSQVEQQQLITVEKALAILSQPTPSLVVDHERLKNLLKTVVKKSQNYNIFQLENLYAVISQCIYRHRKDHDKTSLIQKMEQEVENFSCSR
Assay: IP/MS, LZTR1 wild type-FLAG, U87
How it was run: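 Extracted peptides in 3% acetonitrile/0.1% formic acid ran on a 50 cm C18 column into an Orbitrap Fusion, with MaxQuant identification and spectral counting.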

- binding result: binds
B1: LZTR1-FLAG (other, human, UniProt Q8N653 1-840, looked up)
chain: MAGPGSTGGQIGAAALAGGARSKVAPSVDFDHSCSDSVEYLTLNFGPFETVHRWRRLPPCDEFVGARRSKHTVVAYKDAIYVFGGDNGKTMLNDLLRFDVKDCSWCRAFTTGTPPAPRYHHSAVVYGSSMFVFGGYTGDIYSNSNLKNKNDLFEYKFATGQWTEWKIEGRLPVARSAHGATVYSDKLWIFAGYDGNARLNDMWTIGLQDRELTCWEEVAQSGEIPPSCCNFPVAVCRDKMFVFSGQSGAKITNNLFQFEFKDKTWTRIPTEHLLRGSPPPPQRRYGHTMVAFDRHLYVFGGAADNTLPNELHCYDVDFQTWEVVQPSSDSEVGGAEVPERACASEEVPTLTYEERVGFKKSRDVFGLDFGTTSAKQPTQPASELPSGRLFHAAAVISDAMYIFGGTVDNNIRSGEMYRFQFSCYPKCTLHEDYGRLWESRQFCDVEFVLGEKEECVQGHVAIVTARSRWLRRKITQARERLAQKLEQEAAPVPREAPGVAAGGARPPLLHVAIREAEARPFEVLMQFLYTDKIKYPRKGHVEDVLLIMDVYKLALSFQLCRLEQLCRQYIEASVDLQNVLVVCESAARLQLSQLKEHCLNFVVKESHFNQVIMMKEFERLSSPLIVEIVRRKQQPPPRTPLDQPVDIGTSLIQDMKAYLEGAGAEFCDITLLLDGHPRPAHKAILAARSSYFEAMFRSFMPEDGQVNISIGEMVPSRQAFESMLRYIYYGEVNMPPEDSLYLFAAPYYYGFYNNRLQAYCKQNLEMNVTVQNVLQILEAADKTQALDMKRHCLHIIVHQFTKVSKLPTLRSLSQQLLLDIIDSLASHISDKQCAELGADI
notes: Expressed in HEK 293T, HeLa or U87 cells; used as cell lysate; also called LZTR1 wild type-FLAG; LZTR1 WT; not shown: FLAG tag at the C-terminus

Source: patent US20250262210A1 (TRUSTEES OF COLUMBIA UNIVERSITY IN THE CITY OF NEW YORK, published 2025)
